{"source": "paper PMC3034190", "about": "(Molecular Microbiology, 2010)", "target": "the molecule itself", "assay": "crystal structure", "data": [{"protein": "MSMEG_3380 (FDR-B family F420H2-dependent reductase), recombinant, for crystallography (enzyme, seleno-methionine labelled) MVAVPEGYESLLERPLYGHLATVRPDGTPQVNAMWFAWDGEVLRFTHTTKRQKYRNIKANPAVAMSVIDPDNPYRYLEVRGLVEDIVPDPTGAFYLKLNDRYDGPLTEPPADKADRVIIVVRPTAFSKQ", "values": [{"measurement": "binding result", "result": "binds"}]}]}
